Laboratory results from US20150141617A1, “PRODUCTION AND PURIFICATION OF ACTIVE EUKARYOTIC FORMYLGLYCINEGENERATING ENZYME (FGE) VARIANTS” (Universität Bielefeld, priority 2013, published 2015).

Molecular target: T1, recombinant furin (rFurin) (Homo sapiens, UniProt P09958)
T1 construct: purchased NEB
Experiment: In vitro furin cleavage assay
Assay type: biochemical
Procedure: CHO-FD11 cells stably expressing FGE-His6 or HT1080 cells were grown for 24 h, and cells and medium were harvested. For treatment with furin in vitro cell pellets were resuspended in HEPES pH 7.5 buffer containing 1 mM CaCl2 and 0.5% Triton X-100 and lysed in the absence of protease inhibitors by sonication on ice. Appropriate amounts of cell lysate and medium were incubated for 3 h at 25° C. with 4 units of furin (NEB) with or without 25 μM decanoyl-RVKR-CMK (Alexis biochemicals) as indicated in the figures. For in vivo treatment, HT1080 Tet-On cells were transiently transfected with pBI-FGE-HA and 4 h post-transfection, the medium was replenished with medium containing 20 ng/mL doxycycline and various concentrations of decanoyl-RVKR-CMK or only DMSO as a carrier control. The cells and medium were collected after 16 h of induction/treatment for further analysis. The samples were boiled in Laemmli buffer and analyzed by SDS-PAGE and western blotting with FGE antiserum.
In mammals, the proproteinconvertase family comprises nine enzymes that differ in their substrate specificity and tissue-specific expression and/or subcellular localization (17). Furin is the best characterized mammalian PC with a ubiquitous tissue distribution and it is the major convertase in the secretory pathway. To analyze the role of furin in the processing of FGE the inventors expressed FGE in cells that are deficient for furin. […] When cell homogenate and medium from CHO-FD11 cells stably expressing FGE-His were treated with commercially available recombinant furin (rFurin), almost half the amount of FGE was processed, as observed for both cells and medium (FIG. 12D). Using this in vitro furin cleavage assay, the inventors also examined whether endogenous intracellular FGE is susceptible to furin processing. Indeed, rFurin readily converted almost 90% of endogenous fl-FGE from untransfected HT1080 cells to the truncated form (FIG. 12E).
Although FGE is an ER resident protein, it lacks a canonical ER-retention motif. […] In this study, using the in vitro furin cleavage assay, the inventors assessed furin-mediated processing of the FGE-ERp44 covalent complex (FIG. 8). Homogenates, pre-treated with NEM (to prevent post-lysis disulfide shuffling), from HT1080 cells expressing either FGE alone or FGE plus myc-ERp44 together from a bi-directional promoter were incubated with rFurin and analyzed by SDS-PAGE under non-reducing conditions. Upon overexpression, intracellular FGE via its N-terminal cysteines (C50 and C52) forms covalently cross-bridged homodimers (FIG. 15, lane 1 and 2) and, additionally, FGE-ERp44 heterodimers when co-expressed with ERp44 (FIG. 15, lane 4 and 6) as previously observed (13). Removal of the N-terminus by furin cleavage should lead to a disappearance of the homo-/hetero-dimeric FGE forms, which serves as an indicator for accessibility of the furin cleavage motif in FGE.

T1 sequence (P09958 108-794): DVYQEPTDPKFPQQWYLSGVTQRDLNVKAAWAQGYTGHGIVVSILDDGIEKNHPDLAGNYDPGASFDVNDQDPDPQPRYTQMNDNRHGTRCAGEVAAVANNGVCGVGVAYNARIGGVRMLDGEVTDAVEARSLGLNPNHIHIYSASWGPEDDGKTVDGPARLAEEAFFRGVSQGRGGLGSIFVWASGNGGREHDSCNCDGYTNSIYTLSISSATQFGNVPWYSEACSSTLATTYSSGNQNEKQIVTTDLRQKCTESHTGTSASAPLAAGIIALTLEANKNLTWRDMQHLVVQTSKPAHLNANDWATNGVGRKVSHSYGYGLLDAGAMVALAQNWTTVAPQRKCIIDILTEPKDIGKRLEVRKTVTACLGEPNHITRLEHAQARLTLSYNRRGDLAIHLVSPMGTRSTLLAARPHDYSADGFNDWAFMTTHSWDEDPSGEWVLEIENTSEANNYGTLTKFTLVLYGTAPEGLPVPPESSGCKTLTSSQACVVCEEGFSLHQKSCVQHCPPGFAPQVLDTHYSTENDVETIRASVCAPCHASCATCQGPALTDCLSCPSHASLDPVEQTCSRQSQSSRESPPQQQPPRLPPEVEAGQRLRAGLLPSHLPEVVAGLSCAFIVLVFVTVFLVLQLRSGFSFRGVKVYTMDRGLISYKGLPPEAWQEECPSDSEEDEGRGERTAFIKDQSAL

- accessibility of the furin-cleavage site in FGE monomer and homodimer (NEM-treated HT1080 Tet-On lysates): accessible to furin
- furin cleavage of FGE in complex with ERp44 (NEM-treated HT1080 Tet-On lysates co-expressing myc-ERp44): protected from furin cleavage
- amount of FGE processed by rFurin (cell homogenate and medium from CHO-FD11 cells, 3 h 25° C.): almost half
- endogenous fl-FGE converted to the truncated form by rFurin (lysate of untransfected HT1080 cells): ~90%
B1: FGE: human wild type full length formylglycine generating enzyme with RYSR furin cleavage motif, SEQ ID NO:2 (protein)
chain: ADEFSQEAGTGAGAGSLAGSCGCGTPQRPGAHGSSAAAHRYSREANAPGPVPGERQLAHSKMVPIPAGVFTMGTDDPQIKQDGEAPARRVTIDAFYMDAYEVSNTEFEKFVNSTGYLTEAEKFGDSFVFEGMLSEQVKTNIQQAVAAAPWWLPVKGANWRHPEGPDSTILHRPDHPVLHVSWNDAVAYCTWAGKRLPTEAEWEYSCRGGLHNRLFPWGNKLQPKGQHYANIWQGEFPVTNTGEDGFQGTAPVDAFPPNGYGLYNIVGNAWEWTSDWWTVHHSVEETLNPKGPPSGKDRVKKGGSYMCHRSYCYRYRCAARSQNTPDSSASNLGFRCAADRLPTMDSGRGSHHHHHHH
modifications: cloned matured acitve full length FGE with 6x His tag on C-terminus
